± gives the standard deviation of the averaged measurements.
Each sequence was assayed on Saccharomyces cerevisiae (assay: protein stability index of tFT-peptide fusion (C-terminal peptide) (PSI (0-1 scale)); higher = more stable (slower turnover)). Settings: genetic background: wild type; temperature: 30 C.
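Further: PSI is a weighted mean of sequencing reads over stability bins, variants kept only with over 10 reads, mCherry proximal and sfGFP distal, peptide attached via GGGS linker.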

Sequence | protein stability index
PFRPPPPPSSPP | 0.735 ± 0.037
PFSFSSLSASVF | 0.7033 ± 0.0025
PFSRIFSPLSLL | 0.68 ± 0.045
PFSSVATFLSRL | 0.854 ± 0.17
PFVLVSDAHLIT | 0.66 ± 0.035
PFYVEAVEKPEH | 0.855 ± 0.035
PGAGGLSLVVRR | 0.654 ± 0.053
PGAVNRASDGEV | 0.6061 ± 0.005
PGCGRKSAFGLT | 0.699 ± 0.037
PGCPRDRLLLQL | 0.67 ± 0.025
PGCSFSYYFFAV | 0.5725 ± 0.0016
PGDVSFALARNG | 0.624 ± 0.074
PGGRPAAGALRV | 0.685 ± 0.065
PGLCGGRRCVAL | 0.638 ± 0.073
PGLNHLTPMLPP | 0.635 ± 0.038
PGLPGHLPPLPL | 0.62033 ± 0.00011
PGLRSQQLIAPI | 0.652 ± 0.069
PGPCLLFPPFPP | 0.643 ± 0.012
PGPPADLAPPPP | 0.753 ± 0.018
PGPPYPPPPLHP | 0.716 ± 0.008
PGRLPPPFASFF | 0.687 ± 0.0091
PGSKLGPAASRG | 0.663 ± 0.071
PGSPPGLERLGR | 0.694 ± 0.059
PGSPPPPDTLSP | 0.701 ± 0.034
PGTLPDDLASTR | 0.673 ± 0.034
PGVGRLGRTPVS | 0.6959 ± 0.0054

Sequence | protein stability index
PHHLLTAHPPPA | 0.668 ± 0.035
PHLAAPAPALQD | 0.613 ± 0.056
PHLPPLLTTTPS | 0.61 ± 0.023
PHLPPQPPSPPA | 0.716 ± 0.045
PHLRPPPPPPPQ | 0.6892 ± 0.0049
PHLSRSVSKVLR | 0.659 ± 0.066
PHPLPLPLPLSP | 0.7134 ± 0.0017
PHPPPPPPPHSP | 0.715 ± 0.08
PHPPPTAPGPSP | 0.67 ± 0.00026
PHPRFYPSTPPP | 0.64827 ± 7.8e-06
PHPRRSTKTQRR | 0.7878 ± 0.0045
PHPTPGTPEPRD | 0.744 ± 0.17
PHSLPPPTPPHS | 0.629 ± 0.047
PHSPLSPAPQSP | 0.787 ± 0.02
PHTFNVRPFHPD | 0.674 ± 0.034
PHTLKPNPLSTA | 0.61 ± 0.063
PHTLPPLLRHAP | 0.693 ± 0.015
PHVCPVLSAAGR | 0.629 ± 0.044
PHYCSAYTAGHG | 0.72 ± 0.036
PIELTQRASVPP | 0.6592 ± 0.0052
PIFPALPRLSPS | 0.725 ± 0.022
PIFPFSFFLPLI | 0.605 ± 0.011
PIFPPLTSPSPP | 0.68 ± 0.032
PILSGILFMSPP | 0.755 ± 0.0092
PIPPRLPPPPPP | 0.589 ± 0.057
PISLSFPPPLHP | 0.65 ± 0.017

Sequence | protein stability index
PKKNQSKQRKKT | 0.708 ± 0.05
PKTPRFWLLFPA | 0.699 ± 0.022
PKTSTPPPTSPA | 0.675 ± 0.0073
PLALARSPPPSP | 0.671 ± 0.02
PLALLHSHPPAN | 0.677 ± 0.0066
PLAPLLSPPAFP | 0.808 ± 0.12
PLAPPLPPPGPL | 0.74 ± 0.022
PLAPPSPPPAPP | 0.6618 ± 0.00085
PLCVICRRWGAS | 0.646 ± 0.046
PLEPDFLIGGNA | 0.807 ± 0.16
PLEYPAQATMKP | 0.657 ± 0.021
PLFLPLVPPQIL | 0.682 ± 0.028
PLFPPPSLLTPH | 0.719 ± 0.14
PLGGPYNSHMFT | 0.956 ± 0.038
PLHLLPPPSSYP | 0.759 ± 0.033
PLHPDSCGSLSS | 0.647 ± 0.038
PLHPPATPAATT | 0.69 ± 0.025
PLHRPLPRPPSP | 0.745 ± 0.019
PLLHDSHAIIPH | 0.716 ± 0.079
PLLPLLPSPASP | 0.674 ± 0.0098
PLLPRLPPLSPP | 0.691 ± 0.07
PLLRRLFPLSSR | 0.608 ± 0.052
PLLYSDRPSIFL | 0.663 ± 0.026
PLNPSPSCPPTL | 0.676 ± 0.023
PLPAPSPLPSPL | 0.735 ± 0.038
PLPCLPPAGSTP | 0.818 ± 0.02

Sequence | protein stability index
PLPFSTSPYAGR | 0.675 ± 0.011
PLPHPPPLALRT | 0.655 ± 0.063
PLPKARRHHSPA | 0.653 ± 0.033
PLPLPSLSAIFL | 0.677 ± 0.016
PLPLPSPPPASP | 0.732 ± 0.025
PLPLSPLLLPPR | 0.6836 ± 0.0045
PLPPAPPSLSPP | 0.651 ± 0.01
PLPPHPPPPRPL | 0.698 ± 0.035
PLPPLAPPHRSP | 0.682 ± 0.091
PLPPLLAGAGLS | 0.704 ± 0.018
PLPPLTPASPHP | 0.72 ± 0.035
PLPPPLPASSPP | 0.681 ± 0.045
PLPPPLPLSSPP | 0.67 ± 0.012
PLPPPPAHPPPP | 0.616 ± 0.03
PLPPPPPLPLSP | 0.693 ± 0.07
PLPPPPPPIPLT | 0.702 ± 0.14
PLPPPPPPPSSP | 0.726 ± 0.011
PLPPPPVSLPAP | 0.617 ± 0.064
PLPPRPHPPPPY | 0.695 ± 0.037
PLPPRPPPLPLP | 0.716 ± 0.013
PLPPTPPPALSQ | 0.7 ± 0.018
PLPRLPLLPPLR | 0.67 ± 0.045
PLPSCTLCRPAL | 0.695 ± 0.03
PLPSLSPLPPPL | 0.701 ± 0.017
PLPSPSYLKSPC | 0.705 ± 0.013
PLPSVLFCLTRW | 0.665 ± 0.02

Sequence | protein stability index
PLPTLPFPCSPS | 0.706 ± 0.016
PLPVLFFFSACS | 0.661 ± 0.043
PLRISQLDVVRS | 0.655 ± 0.045
PLRPLPTPRPPP | 0.686 ± 0.0071
PLRYRPPPPPPP | 0.672 ± 0.031
PLSCFIPPVSSW | 0.666 ± 0.027
PLSPLAPPPAPS | 0.661 ± 0.075
PLSPNIHQRPPA | 0.75 ± 0.0096
PLSPPPPFPFPP | 0.71 ± 0.064
PLSPPVSLPLTP | 0.672 ± 0.098
PLSPSAVGCPGF | 0.645 ± 0.16
PLSPSFAPPSPA | 0.69672 ± 0.00044
PLSPTTRTRSQS | 0.642 ± 0.067
PLSTGLPFPRSP | 0.718 ± 0.028
PLTACPSAPTLP | 0.667 ± 0.0078
PLTGSLIPLFPL | 0.732 ± 0.029
PLTPPRLPRPFH | 0.7123 ± 0.0065
PLVAGRVIVTLR | 0.554 ± 0.011
PLVPISPLPYLP | 0.737 ± 0.012
PLVPPPADPLCV | 0.63 ± 0.0071
PLVRGSLGALGR | 0.657 ± 0.12
PLYSKHPTRFFP | 0.714 ± 0.011
PLYTSFSPSFYL | 0.669 ± 0.043
PMFESFHLPAPI | 0.715 ± 0.018
PNAFTEPTHPGR | 0.742 ± 0.066
PNFYPLWLNLPL | 0.813 ± 0.086

Sequence | protein stability index
PNLIFHHSFSFL | 0.692 ± 0.031
PNPTPYRRPCPP | 0.6846 ± 0.0041
PNTSVAATPHDF | 0.67 ± 0.085
PNVSPTPPYSSP | 0.691 ± 0.023
PNYQRRTKTNSP | 0.703 ± 0.04
PPAALPPSTLFS | 0.673 ± 0.04
PPAFFPHSRPLL | 0.598 ± 0.038
PPAGCSPSPRSP | 0.66 ± 0.056
PPALPPTRPPVS | 0.696 ± 0.047
PPALRPNPPLPL | 0.7769 ± 0.0016
PPAPLPSPRRSL | 0.696 ± 0.065
PPAPPPPLLNLP | 0.714 ± 0.014
PPAPPTSLPSPL | 0.726 ± 0.019
PPAPSPPQPSPL | 0.686 ± 0.0088
PPAPSPPVPPQL | 0.727 ± 0.026
PPAPSSLPSPPS | 0.715 ± 0.017
PPAPTPLSPLAS | 0.693 ± 0.051
PPAPTPSPSPPP | 0.68 ± 0.1
PPARATPHDRCP | 0.724 ± 0.037
PPASLPPPTAFN | 0.764 ± 0.049
PPASLRRPRSYL | 0.748 ± 0.025
PPASPSPSLLSP | 0.6491 ± 0.0025
PPASSPPSRPPP | 0.62626 ± 0.00058
PPATPPPPPPFL | 0.68 ± 0.15
PPATPPRPLLPP | 0.672 ± 0.091
PPCPVTSFRPSI | 0.755 ± 0.05

Sequence | protein stability index
PPDPPPHASPAP | 0.72 ± 0.03
PPDRNPANTSCD | 0.638 ± 0.029
PPFPPDTLPLLP | 0.746 ± 0.017
PPFPPPCFPPPL | 0.72 ± 0.0084
PPFRPFTSPVTY | 0.579 ± 0.031
PPFSPSPPHVCP | 0.673 ± 0.045
PPFVLLVPTSLS | 0.68 ± 0.018
PPGLPLSPCPPP | 0.685 ± 0.061
PPGSFWLQARVR | 0.705 ± 0.071
PPGYGISYLLIE | 0.66 ± 0.07
PPHAYTSTPSLF | 0.67 ± 0.028
PPHGPPPLPPPS | 0.678 ± 0.15
PPHIIPHPKAHT | 0.687 ± 0.017
PPHLPPPPSPSV | 0.6729 ± 0.0053
PPHPAPPLQPQT | 0.64 ± 0.14
PPHPPPVTPHAS | 0.722 ± 0.029
PPHPPRCRRSPC | 0.718 ± 0.037
PPHPPYPPQPSL | 0.7021 ± 0.005
PPHPQRANAPGH | 0.6615 ± 0.0057
PPHTSPLSPRPP | 0.658 ± 0.052
PPIPLPPLAPPL | 0.699 ± 0.038
PPLALLLSPVPP | 0.688 ± 0.046
PPLAPASPSPLP | 0.698 ± 0.023
PPLCTTPTPRRV | 0.735 ± 0.041
PPLFPPPPPLPR | 0.718 ± 0.027
PPLFTLSFSHFV | 0.679 ± 0.021

Sequence | protein stability index
PPLHPPLPPPPS | 0.71 ± 0.06
PPLLALSASRVT | 0.698 ± 0.017
PPLLLLRRRSPS | 0.699 ± 0.062
PPLLPPPPPPAP | 0.666 ± 0.032
PPLLPYHPTRFD | 0.713 ± 0.012
PPLLRAPLLPPC | 0.708 ± 0.021
PPLPAPPPLRPP | 0.606 ± 0.012
PPLPAPSPPAPP | 0.68 ± 0.022
PPLPDSPPPVPP | 0.633 ± 0.017
PPLPFPSLPTPP | 0.696 ± 0.042
PPLPLPPLALTR | 0.722 ± 0.037
PPLPLPPRPTPP | 0.716 ± 0.071
PPLPPLSPAPPR | 0.681 ± 0.0073
PPLPPPHLAFLH | 0.685 ± 0.035
PPLPPPIPLRPP | 0.539 ± 0.02
PPLPPPLPHRPL | 0.716 ± 0.078
PPLPPPPLLPAP | 0.726 ± 0.019
PPLPPPPSPALL | 0.75 ± 0.019
PPLPPPTPRPAP | 0.754 ± 0.058
PPLPPPVYHSLP | 0.6855 ± 0.0027
